# Source: patent publication US20080102065A1 (published 2008)
# T1: huEpoR expressed on the cell surface (UT-7 cells) (human, UniProt P19235 25-508)
# T1 sequence (looked up): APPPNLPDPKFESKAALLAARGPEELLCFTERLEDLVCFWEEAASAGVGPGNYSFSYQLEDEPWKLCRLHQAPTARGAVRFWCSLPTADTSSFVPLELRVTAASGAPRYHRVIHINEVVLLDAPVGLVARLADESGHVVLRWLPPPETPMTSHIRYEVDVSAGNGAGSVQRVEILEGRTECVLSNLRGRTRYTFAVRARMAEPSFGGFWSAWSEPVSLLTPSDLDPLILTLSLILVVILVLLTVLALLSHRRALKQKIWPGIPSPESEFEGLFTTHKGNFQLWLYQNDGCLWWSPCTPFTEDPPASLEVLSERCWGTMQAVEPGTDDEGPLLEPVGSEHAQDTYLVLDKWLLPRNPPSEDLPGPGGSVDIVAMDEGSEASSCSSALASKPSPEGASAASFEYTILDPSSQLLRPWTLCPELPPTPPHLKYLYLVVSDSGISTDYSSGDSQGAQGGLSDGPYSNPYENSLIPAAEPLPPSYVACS
# T2: cynomolgus monkey EpoR (cynoEpoR) (cynomolgus monkey, UniProt A0A2K5WKK4 25-250)
# T2 construct: Soluble protein (coated in ELISA, analyte in SPR)
# T2 sequence: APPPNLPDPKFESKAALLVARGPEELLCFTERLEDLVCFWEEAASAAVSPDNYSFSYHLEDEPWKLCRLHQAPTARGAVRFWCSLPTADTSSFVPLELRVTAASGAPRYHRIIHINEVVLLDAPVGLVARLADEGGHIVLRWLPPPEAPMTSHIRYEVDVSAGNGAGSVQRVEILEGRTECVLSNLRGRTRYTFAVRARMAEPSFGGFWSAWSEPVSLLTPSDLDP
# T3: mouse EpoR (muEpoR) (mouse, UniProt P14753 25-249, limits assumed)
# T3 sequence (looked up): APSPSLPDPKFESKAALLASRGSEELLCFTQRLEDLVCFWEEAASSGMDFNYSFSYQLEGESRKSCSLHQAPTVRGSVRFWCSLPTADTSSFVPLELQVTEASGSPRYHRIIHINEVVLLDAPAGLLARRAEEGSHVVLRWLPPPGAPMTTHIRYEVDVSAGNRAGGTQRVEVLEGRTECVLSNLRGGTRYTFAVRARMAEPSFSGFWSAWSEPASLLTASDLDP
# T4: huEpoR protein (soluble human erythropoietin receptor) (human, UniProt P19235 25-250, limits assumed)
# T4 construct: also called soluble huEpoR; biotinylated huEpoR
# T4 sequence (looked up): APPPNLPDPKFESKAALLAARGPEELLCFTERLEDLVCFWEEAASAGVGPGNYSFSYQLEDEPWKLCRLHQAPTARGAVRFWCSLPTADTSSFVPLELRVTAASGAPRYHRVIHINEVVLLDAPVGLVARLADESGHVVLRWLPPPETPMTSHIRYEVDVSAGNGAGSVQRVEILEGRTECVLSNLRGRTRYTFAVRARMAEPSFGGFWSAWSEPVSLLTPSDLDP
# Tests used:
# [1] = molecular target: T1, huEpoR expressed on the cell surface …; experiment: cell-based or functional assay
# [2] = molecular target: T2, cynomolgus monkey EpoR (cynoEpoR); experiment: SPR, Biacore T100; scFv-Fc captured on anti-human IgG Fc CM5 chip, EpoR as analyte; steady-state fit; steady-state fit; cyno EpoR
# Experimental: (§1) Surface plasmon resonance experiments were conducted at 25° C. using a Biacore T100 instrument (Biacore AB, Uppsala, Sweden) equipped with a CM5 sensor chip. Each flow cell on the CM5 chips was activated with a 1:1 (v/v) mixture of 0.1 M N-hydroxysuccinimide (NHS) and 0.4 M1-ethyl-3-(3-dimethylaminopropyl) carbodiimide hydrochloride (EDC). Fcγ Fragment Specific AffiniPure Goat Anti-Human IgG antibody at 30 μg/ml in 10 mM sodium acetate, pH 5.0 was immobilized to two flow cells on the CM5 chips using standard amine coupling chemistry with a target level of 10,000 Resonance Units (RU). Residual reactive surfaces were deactivated with an injection of 1 M ethanolamine. The running buffer was then switched to HBS-EP+0.1 mg/ml BSA for all remaining steps.
# (§2) For each scFv-Fc protein to be tested, the scFv-Fc protein was diluted in running buffer to 200 ng/ml and injected over the test flow cell at 10 μl/min for 2 minutes to capture the maxibody. […] A flow rate of 50 μl/min was used and a 1 minute association phase followed by a 5 minute (for cyno EpoR) or 10 minute (for hu EpoR) dissociation phase. After each cycle the surfaces were regenerated with a 30 second injection of 10 mM glycine pH 1.5. Fresh scFv-Fc protein was then captured on the test flow cell to prepare for the next cycle.
# mouse EpoR (muEpoR) = molecular target: T3, mouse EpoR (muEpoR); experiment: ELISA on coated muEpoR, scFv-Fc at 5 µg/ml (Example 17)
# Experimental: The cross reactivity of certain clones in scFv-Fc format was tested using an ELISA Assay. […] 100 μl of 1 μg/ml (in 50 mM NaHCO3, pH8.5) cynoEpoR or muEpoR was added to each well on a polysorp ELISA plate and incubated at 4° C. overnight. After blocking the wells with 4% milk/PBS/0.1% Tween20 for 1 hour at room temperature, plates were washed three times with PBS/0.1% Tween20. 100 μl of 5 μg/ml scFv-Fc was added to each well and incubated for 1 hour at 25° C. […] ABTS (2,2′-azino-bis(3-ethylbenzthiazoline-6-sulfonic acid)) was used as a substrate and the absorption was measured at 405 nm on a plate reader.
# [3] = molecular target: T4, huEpoR protein (soluble human …); experiment: SPR, Biacore T100; scFv-Fc captured on anti-human IgG Fc CM5 chip, EpoR as analyte; 1:1 fit;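 also: measured at 25 °C in HBS-EP buffer with 0.1 mg/ml BSA, flowed at 50 µl/min, 1 min association then dissociation (10 min human, 5 min cyno EpoR)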
# Experimental: as §1, §2
Binder,"Average EC50 (nM), UT-7-luciferase (STAT5 reporter) assay [1]","Ratio (EC50 of Epo / EC50 of the scFv-Fc), UT-7-luciferase assay [1]",Kd [2],binding result (mouse EpoR (muEpoR)),Kd [3],koff [3],kon [3]
"Mxb 318 (clone 318 scFv-Fc protein) (Fc fusion, Tested as scFv-Fc (maxibody) with an Fc derived from human IgG1) VH: QVQLVESGGGLVQPGGSLRLSCAVSGFTFSKYWMTWVRQAPGKGLEWVANIKPDGSEKYYVESVKGRFTISRDNAKNSVYLQMNSVRAEDTAVYYCARVSRGGSFSDWGQGTLVTVSS VL: QSVLTQPPSASGSPGQSVTISCTGTSSDVGGYNYVSWYQQHPGRAPKLIIYEVSKRPSGVPDRFSGSKSGNTASLTVSGLQADDEADYYCNSYAGSIYVFGSGTKVTVL",0.0154 nM,0.623,4890 nM,no binding (tested: 5 µg/ml),847 nM,0.558 s⁻¹,659000 M⁻¹ s⁻¹
"Mxb 34 (clone 34 scFv-Fc protein) (Fc fusion, Tested as scFv-Fc (maxibody) with an Fc derived from human IgG1) VH: QVQLQQSGAEVKKPGASVKVSCKASGYTFSGYYMHWVRQAPGQGLEWMGWINPNSGSTNYAQKFLGRVTMTRDTSISTAYMELSSLRSDDTAVYYCARGHSGDYFDYWGQGTLVTVSA VL: EIVLTQSPSSLSASVGDRVTITCRASQSVSSWLAWYQQRPGQAPKLLIYAARLRGGGPSRFSGSGSGTEFTLTISSLQPEDFATYFCQQSYSTPISFGGGTKLEIK",0.11 nM,0.088,5810 nM,no binding (tested: 5 µg/ml),378 nM,0.203 s⁻¹,536000 M⁻¹ s⁻¹
